Target: G12D (M3D-GPR183/ICL3 F93^1.57V), FLAG-epitope-tagged (human)
Sequence (chain, as listed by the source G12D): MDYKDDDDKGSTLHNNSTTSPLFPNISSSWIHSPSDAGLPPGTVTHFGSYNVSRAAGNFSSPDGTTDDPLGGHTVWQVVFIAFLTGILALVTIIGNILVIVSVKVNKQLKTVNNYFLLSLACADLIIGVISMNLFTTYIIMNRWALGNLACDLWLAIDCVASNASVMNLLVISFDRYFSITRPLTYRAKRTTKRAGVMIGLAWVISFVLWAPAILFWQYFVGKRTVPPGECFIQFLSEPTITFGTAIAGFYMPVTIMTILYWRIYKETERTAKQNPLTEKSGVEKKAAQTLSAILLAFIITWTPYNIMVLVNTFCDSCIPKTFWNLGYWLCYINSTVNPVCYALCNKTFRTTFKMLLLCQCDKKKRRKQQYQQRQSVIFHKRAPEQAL

B1: Gα_(q-12C) (protein)
chain: MTLESIMACCLSEEAKEARRINDEIERQLRRDKRDARRELKLLLLGTGESGKSTFIKQMRIIHGSGYSDEDKRGFTKLVYQNIFTAMQAMIRAMDTLKIPYKYEHNKAHAQLVREVDVEKVSAFENPYVDAIKSLWNDPGIQECYDRRREYQLSDSTKYYLNDLDRVADPAYLPTQQDVLRVRVPTTGIIEYPFDLQSVIFRMVDVGGQRSERRKWIHCFENVTSIMFLVALSEYDQVLVESDNENRMEESKALFRTIITYPWFQNSSVILFLNKKDLLEEKIMYSHLVDYFPEYDGPQRDAQAAREFILKMFVDLNPDSDKIIYSHFTCATDTENVRFVFHAVKDTILQENLKDIMLQ
  TGFα shedding assay (AP-TGFα release on CNO, concentration-response) in ∆Gq/∆G12 HEK293 cells; relative intrinsic activity (RAi) of Gα (q-12C) against Gα (q-13C): 4.6 fold

Reference: paper PMC11096383
